What all share (test): cell-based or functional assay
The target in experiment [1] is human GLP-1 receptor (human, UniProt P43220 24-463).
The target of experiment [2] is T1, human GIP receptor (human, UniProt P48546 22-466).
T1 sequence (looked up): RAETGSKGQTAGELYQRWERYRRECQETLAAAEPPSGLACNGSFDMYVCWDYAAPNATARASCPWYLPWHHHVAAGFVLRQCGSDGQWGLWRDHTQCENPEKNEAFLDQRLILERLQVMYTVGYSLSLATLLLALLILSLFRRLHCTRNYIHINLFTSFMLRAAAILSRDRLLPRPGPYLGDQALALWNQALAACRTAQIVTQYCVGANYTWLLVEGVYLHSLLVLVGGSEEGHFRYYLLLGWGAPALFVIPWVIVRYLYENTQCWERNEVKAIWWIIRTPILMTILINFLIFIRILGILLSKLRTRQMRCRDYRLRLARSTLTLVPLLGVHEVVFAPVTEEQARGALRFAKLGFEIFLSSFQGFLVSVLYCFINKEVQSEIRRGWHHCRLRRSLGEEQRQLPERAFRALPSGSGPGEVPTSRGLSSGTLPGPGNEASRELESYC

The target in experiment [3] is human glucagon receptor (human, UniProt P47871 26-477).

*1 amine or outer side, *2 acyl side, *3 side chain or, on linkers, in order; H or OH if unused. Where no end group is shown, it is not given here. Side-chain parts run from the residue outwards. [ ]: non-standard residue; d: D form. The star is where a group is joined. γGlu = O=C(O)[C@H](CCC(=O)[*:2])N[*:1]; Stearoyl = CCCCCCCCCCCCCCCCCC(=O)*; Palmitoyl = CCCCCCCCCCCCCCCC(=O)*; Aib = CC(C)(N)C(=O)O

human glucagon receptor, sequence (P47871 26-477): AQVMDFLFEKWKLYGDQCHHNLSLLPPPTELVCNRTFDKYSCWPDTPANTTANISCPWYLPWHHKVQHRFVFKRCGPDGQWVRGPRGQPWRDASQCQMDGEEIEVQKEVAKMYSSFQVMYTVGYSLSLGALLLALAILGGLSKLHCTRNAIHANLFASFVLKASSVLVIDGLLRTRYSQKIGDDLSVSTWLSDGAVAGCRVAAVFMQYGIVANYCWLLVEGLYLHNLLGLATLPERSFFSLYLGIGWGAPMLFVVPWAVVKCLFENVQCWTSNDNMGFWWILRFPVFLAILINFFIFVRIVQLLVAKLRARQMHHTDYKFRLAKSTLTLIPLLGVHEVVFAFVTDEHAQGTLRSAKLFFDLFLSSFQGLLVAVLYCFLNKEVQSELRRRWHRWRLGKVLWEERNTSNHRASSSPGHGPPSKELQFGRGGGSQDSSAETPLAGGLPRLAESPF

B1: exendin-4 peptide analogue SEQ ID NO: 14 (peptide)
peptide: Y[Aib]QGTFTSDLSIQK([γGlu-Palmitoyl])EKRAA[Aib]EFIEWLKA[dA]GPSSGAPPPS-NH2
modifications: N-terminus assumed
SMILES: CCCCCCCCCCCCCCCC(=O)N[C@@H](CCC(=O)NCCCC[C@H](NC(=O)[C@H](CCC(N)=O)NC(=O)[C@@H](NC(=O)[C@H](CO)NC(=O)[C@H](CC(C)C)NC(=O)[C@H](CC(=O)O)NC(=O)[C@H](CO)NC(=O)[C@@H](NC(=O)[C@H](Cc1ccccc1)NC(=O)[C@@H](NC(=O)CNC(=O)[C@H](CCC(N)=O)NC(=O)C(C)(C)NC(=O)[C@@H](N)Cc1ccc(O)cc1)[C@@H](C)O)[C@@H](C)O)[C@@H](C)CC)C(=O)N[C@@H](CCC(=O)O)C(=O)N[C@@H](CCCCN)C(=O)N[C@@H](CCCNC(=N)N)C(=O)N[C@@H](C)C(=O)N[C@@H](C)C(=O)NC(C)(C)C(=O)N[C@@H](CCC(=O)O)C(=O)N[C@@H](Cc1ccccc1)C(=O)N[C@H](C(=O)N[C@@H](CCC(=O)O)C(=O)N[C@@H](Cc1c[nH]c2ccccc12)C(=O)N[C@@H](CC(C)C)C(=O)N[C@@H](CCCCN)C(=O)N[C@@H](C)C(=O)N[C@H](C)C(=O)NCC(=O)N1CCC[C@H]1C(=O)N[C@@H](CO)C(=O)N[C@@H](CO)C(=O)NCC(=O)N[C@@H](C)C(=O)N1CCC[C@H]1C(=O)N1CCC[C@H]1C(=O)N1CCC[C@H]1C(=O)N[C@@H](CO)C(N)=O)[C@@H](C)CC)C(=O)O
For the molecule B1, the “EC50 hGLP-1 R” value in experiment [1] was 6.5 pM. The “EC50 hGIP R” value in experiment [2] is 6.2 pM. In addition, in experiment [3], the “EC50 hGLUC R” value came to 62.3 pM.

B2: exendin-4 peptide analogue SEQ ID NO: 15 (peptide)
peptide: Y[Aib]QGTFTSDLSIQK([γGlu-Palmitoyl])EQRAA[Aib]EFIEWLKNTGPSSGAPPPS-NH2
modifications: N-terminus assumed
SMILES: CCCCCCCCCCCCCCCC(=O)N[C@@H](CCC(=O)NCCCC[C@H](NC(=O)[C@H](CCC(N)=O)NC(=O)[C@@H](NC(=O)[C@H](CO)NC(=O)[C@H](CC(C)C)NC(=O)[C@H](CC(=O)O)NC(=O)[C@H](CO)NC(=O)[C@@H](NC(=O)[C@H](Cc1ccccc1)NC(=O)[C@@H](NC(=O)CNC(=O)[C@H](CCC(N)=O)NC(=O)C(C)(C)NC(=O)[C@@H](N)Cc1ccc(O)cc1)[C@@H](C)O)[C@@H](C)O)[C@@H](C)CC)C(=O)N[C@@H](CCC(=O)O)C(=O)N[C@@H](CCC(N)=O)C(=O)N[C@@H](CCCNC(=N)N)C(=O)N[C@@H](C)C(=O)N[C@@H](C)C(=O)NC(C)(C)C(=O)N[C@@H](CCC(=O)O)C(=O)N[C@@H](Cc1ccccc1)C(=O)N[C@H](C(=O)N[C@@H](CCC(=O)O)C(=O)N[C@@H](Cc1c[nH]c2ccccc12)C(=O)N[C@@H](CC(C)C)C(=O)N[C@@H](CCCCN)C(=O)N[C@@H](CC(N)=O)C(=O)N[C@H](C(=O)NCC(=O)N1CCC[C@H]1C(=O)N[C@@H](CO)C(=O)N[C@@H](CO)C(=O)NCC(=O)N[C@@H](C)C(=O)N1CCC[C@H]1C(=O)N1CCC[C@H]1C(=O)N1CCC[C@H]1C(=O)N[C@@H](CO)C(N)=O)[C@@H](C)O)[C@@H](C)CC)C(=O)O
Take B2: the “EC50 hGLP-1 R” value in experiment [1] was 6.9 pM. In addition, the “EC50 hGIP R” value in experiment [2] was determined as 11.4 pM. In experiment [3], the “EC50 hGLUC R” value was determined as 54 pM.

B3: exendin-4 peptide analogue SEQ ID NO: 12 (peptide)
peptide: Y[Aib]QGTFTSDLSIQK([γGlu-Palmitoyl])EKAAA[Aib]EFIEWLKNTGPSSGAPPPS-NH2
modifications: N-terminus assumed
SMILES: CCCCCCCCCCCCCCCC(=O)N[C@@H](CCC(=O)NCCCC[C@H](NC(=O)[C@H](CCC(N)=O)NC(=O)[C@@H](NC(=O)[C@H](CO)NC(=O)[C@H](CC(C)C)NC(=O)[C@H](CC(=O)O)NC(=O)[C@H](CO)NC(=O)[C@@H](NC(=O)[C@H](Cc1ccccc1)NC(=O)[C@@H](NC(=O)CNC(=O)[C@H](CCC(N)=O)NC(=O)C(C)(C)NC(=O)[C@@H](N)Cc1ccc(O)cc1)[C@@H](C)O)[C@@H](C)O)[C@@H](C)CC)C(=O)N[C@@H](CCC(=O)O)C(=O)N[C@@H](CCCCN)C(=O)N[C@@H](C)C(=O)N[C@@H](C)C(=O)N[C@@H](C)C(=O)NC(C)(C)C(=O)N[C@@H](CCC(=O)O)C(=O)N[C@@H](Cc1ccccc1)C(=O)N[C@H](C(=O)N[C@@H](CCC(=O)O)C(=O)N[C@@H](Cc1c[nH]c2ccccc12)C(=O)N[C@@H](CC(C)C)C(=O)N[C@@H](CCCCN)C(=O)N[C@@H](CC(N)=O)C(=O)N[C@H](C(=O)NCC(=O)N1CCC[C@H]1C(=O)N[C@@H](CO)C(=O)N[C@@H](CO)C(=O)NCC(=O)N[C@@H](C)C(=O)N1CCC[C@H]1C(=O)N1CCC[C@H]1C(=O)N1CCC[C@H]1C(=O)N[C@@H](CO)C(N)=O)[C@@H](C)O)[C@@H](C)CC)C(=O)O
For the molecule B3, the “EC50 hGLP-1 R” value in experiment [1] is 5.5 pM. The “EC50 hGIP R” value in experiment [2] worked out at 8 pM. In addition, the “EC50 hGLUC R” value in experiment [3] turned out to be 139 pM.

B4: exendin-4 peptide analogue SEQ ID NO: 17 (peptide)
peptide: Y[Aib]EGTFTSDLSKQK([γGlu-Palmitoyl])EKEAA[Aib]EFIEWLKAGGPSSGAPPPS-NH2
modifications: N-terminus assumed
SMILES: CCCCCCCCCCCCCCCC(=O)N[C@@H](CCC(=O)NCCCC[C@H](NC(=O)[C@H](CCC(N)=O)NC(=O)[C@H](CCCCN)NC(=O)[C@H](CO)NC(=O)[C@H](CC(C)C)NC(=O)[C@H](CC(=O)O)NC(=O)[C@H](CO)NC(=O)[C@@H](NC(=O)[C@H](Cc1ccccc1)NC(=O)[C@@H](NC(=O)CNC(=O)[C@H](CCC(=O)O)NC(=O)C(C)(C)NC(=O)[C@@H](N)Cc1ccc(O)cc1)[C@@H](C)O)[C@@H](C)O)C(=O)N[C@@H](CCC(=O)O)C(=O)N[C@@H](CCCCN)C(=O)N[C@@H](CCC(=O)O)C(=O)N[C@@H](C)C(=O)N[C@@H](C)C(=O)NC(C)(C)C(=O)N[C@@H](CCC(=O)O)C(=O)N[C@@H](Cc1ccccc1)C(=O)N[C@H](C(=O)N[C@@H](CCC(=O)O)C(=O)N[C@@H](Cc1c[nH]c2ccccc12)C(=O)N[C@@H](CC(C)C)C(=O)N[C@@H](CCCCN)C(=O)N[C@@H](C)C(=O)NCC(=O)NCC(=O)N1CCC[C@H]1C(=O)N[C@@H](CO)C(=O)N[C@@H](CO)C(=O)NCC(=O)N[C@@H](C)C(=O)N1CCC[C@H]1C(=O)N1CCC[C@H]1C(=O)N1CCC[C@H]1C(=O)N[C@@H](CO)C(N)=O)[C@@H](C)CC)C(=O)O
As to B4, in experiment [1], the “EC50 hGLP-1 R” value was 5.2 pM. Further, the “EC50 hGIP R” value in experiment [2] came to 8.3 pM. For the same molecule, in experiment [3], the “EC50 hGLUC R” value was determined as 21000 pM.

B5: exendin-4 peptide analogue SEQ ID NO: 16 (peptide)
peptide: Y[Aib]EGTFTSDLSIQK([γGlu-Stearoyl])ESKAA[Aib]EFIEWLKAGGPSSGAPPPSK-NH2
modifications: N-terminus assumed
SMILES: CCCCCCCCCCCCCCCCCC(=O)N[C@@H](CCC(=O)NCCCC[C@H](NC(=O)[C@H](CCC(N)=O)NC(=O)[C@@H](NC(=O)[C@H](CO)NC(=O)[C@H](CC(C)C)NC(=O)[C@H](CC(=O)O)NC(=O)[C@H](CO)NC(=O)[C@@H](NC(=O)[C@H](Cc1ccccc1)NC(=O)[C@@H](NC(=O)CNC(=O)[C@H](CCC(=O)O)NC(=O)C(C)(C)NC(=O)[C@@H](N)Cc1ccc(O)cc1)[C@@H](C)O)[C@@H](C)O)[C@@H](C)CC)C(=O)N[C@@H](CCC(=O)O)C(=O)N[C@@H](CO)C(=O)N[C@@H](CCCCN)C(=O)N[C@@H](C)C(=O)N[C@@H](C)C(=O)NC(C)(C)C(=O)N[C@@H](CCC(=O)O)C(=O)N[C@@H](Cc1ccccc1)C(=O)N[C@H](C(=O)N[C@@H](CCC(=O)O)C(=O)N[C@@H](Cc1c[nH]c2ccccc12)C(=O)N[C@@H](CC(C)C)C(=O)N[C@@H](CCCCN)C(=O)N[C@@H](C)C(=O)NCC(=O)NCC(=O)N1CCC[C@H]1C(=O)N[C@@H](CO)C(=O)N[C@@H](CO)C(=O)NCC(=O)N[C@@H](C)C(=O)N1CCC[C@H]1C(=O)N1CCC[C@H]1C(=O)N1CCC[C@H]1C(=O)N[C@@H](CO)C(=O)N[C@@H](CCCCN)C(N)=O)[C@@H](C)CC)C(=O)O
For the molecule B5, in experiment [1], the “EC50 hGLP-1 R” value worked out at 7 pM. In addition, the “EC50 hGIP R” value in experiment [2] was 15.6 pM. Further, the “EC50 hGLUC R” value in experiment [3] was found to be 17000 pM.

B6: exendin-4 peptide analogue SEQ ID NO: 13 (peptide)
peptide: Y[Aib]QGTFTSDLSIQK([γGlu-Palmitoyl])EKRYA[Aib]EFIEWLKNTGPSSGAPPPS-NH2
modifications: N-terminus assumed
SMILES: CCCCCCCCCCCCCCCC(=O)N[C@@H](CCC(=O)NCCCC[C@H](NC(=O)[C@H](CCC(N)=O)NC(=O)[C@@H](NC(=O)[C@H](CO)NC(=O)[C@H](CC(C)C)NC(=O)[C@H](CC(=O)O)NC(=O)[C@H](CO)NC(=O)[C@@H](NC(=O)[C@H](Cc1ccccc1)NC(=O)[C@@H](NC(=O)CNC(=O)[C@H](CCC(N)=O)NC(=O)C(C)(C)NC(=O)[C@@H](N)Cc1ccc(O)cc1)[C@@H](C)O)[C@@H](C)O)[C@@H](C)CC)C(=O)N[C@@H](CCC(=O)O)C(=O)N[C@@H](CCCCN)C(=O)N[C@@H](CCCNC(=N)N)C(=O)N[C@@H](Cc1ccc(O)cc1)C(=O)N[C@@H](C)C(=O)NC(C)(C)C(=O)N[C@@H](CCC(=O)O)C(=O)N[C@@H](Cc1ccccc1)C(=O)N[C@H](C(=O)N[C@@H](CCC(=O)O)C(=O)N[C@@H](Cc1c[nH]c2ccccc12)C(=O)N[C@@H](CC(C)C)C(=O)N[C@@H](CCCCN)C(=O)N[C@@H](CC(N)=O)C(=O)N[C@H](C(=O)NCC(=O)N1CCC[C@H]1C(=O)N[C@@H](CO)C(=O)N[C@@H](CO)C(=O)NCC(=O)N[C@@H](C)C(=O)N1CCC[C@H]1C(=O)N1CCC[C@H]1C(=O)N1CCC[C@H]1C(=O)N[C@@H](CO)C(N)=O)[C@@H](C)O)[C@@H](C)CC)C(=O)O
For B6, in experiment [1], the “EC50 hGLP-1 R” value was found to be 14.1 pM. Besides, the “EC50 hGIP R” value in experiment [2] stood at 26.3 pM. In experiment [3], the “EC50 hGLUC R” value is 20.2 pM.

Values taken from patent US20140213513A1 (Sanofi, priority 2012, published 2014).
